# Reference: patent US20210107958A1, “GLYPICAN EPITOPES AND USES THEREOF” (MINOMIC INTERNATIONAL LTD., priority 2015, published 2021)
# T1: glypican-1 (Homo sapiens, UniProt P35052)
# T1 construct: from tissue; host or cells: human plasma (patients 042 and 046), with or without heparinase treatment
# T1 sequence (P35052 24-530 limits assumed): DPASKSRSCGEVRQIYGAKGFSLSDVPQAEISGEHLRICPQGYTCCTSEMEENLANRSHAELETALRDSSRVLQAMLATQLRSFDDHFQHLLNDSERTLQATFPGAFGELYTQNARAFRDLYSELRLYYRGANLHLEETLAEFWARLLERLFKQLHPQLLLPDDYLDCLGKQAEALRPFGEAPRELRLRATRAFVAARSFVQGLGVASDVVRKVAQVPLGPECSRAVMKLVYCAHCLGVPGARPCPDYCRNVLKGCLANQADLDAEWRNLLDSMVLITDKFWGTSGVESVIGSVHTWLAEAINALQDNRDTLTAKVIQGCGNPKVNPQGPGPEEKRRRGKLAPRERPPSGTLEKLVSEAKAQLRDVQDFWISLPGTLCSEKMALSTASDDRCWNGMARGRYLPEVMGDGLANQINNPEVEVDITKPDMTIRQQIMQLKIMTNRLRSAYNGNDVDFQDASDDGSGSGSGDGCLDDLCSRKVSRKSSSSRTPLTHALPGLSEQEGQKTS
# T2: glypican-1 (Homo sapiens, UniProt P35052)
# T2 construct: endogenous in cells; host or cells: DU-145 prostate cancer cells (membrane protein extract)
# T2 sequence (P35052 24-558): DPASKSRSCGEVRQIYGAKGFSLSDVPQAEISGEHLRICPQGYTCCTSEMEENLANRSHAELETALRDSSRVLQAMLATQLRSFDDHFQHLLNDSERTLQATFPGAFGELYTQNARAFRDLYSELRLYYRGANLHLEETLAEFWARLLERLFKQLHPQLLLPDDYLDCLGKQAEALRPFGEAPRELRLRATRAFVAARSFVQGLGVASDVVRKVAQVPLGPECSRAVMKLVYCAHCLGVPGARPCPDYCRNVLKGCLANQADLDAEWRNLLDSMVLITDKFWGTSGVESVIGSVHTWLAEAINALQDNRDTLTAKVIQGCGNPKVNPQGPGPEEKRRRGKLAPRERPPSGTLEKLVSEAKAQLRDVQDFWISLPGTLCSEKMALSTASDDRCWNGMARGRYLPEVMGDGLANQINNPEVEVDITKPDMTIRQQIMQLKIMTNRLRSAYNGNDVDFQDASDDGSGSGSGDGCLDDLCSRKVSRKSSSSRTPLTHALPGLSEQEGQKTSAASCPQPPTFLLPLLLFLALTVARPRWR
# T3: glypican-1 core protein (Homo sapiens, UniProt P35052)
# T3 construct: endogenous in cells; host or cells: DU-145 prostate cancer cells (membrane protein extract)
# T3 sequence (P35052 24-558): T2 sequence (P35052 24-558)
# T4: MIL38 antigen (Homo sapiens, UniProt P35052)
# T4 construct: tissue Novus Bio; host or cells: membrane protein extracts of normal prostate and prostate cancer
# T4 sequence (P35052 24-558): T2 sequence (P35052 24-558)
# B1: MIL38-AM4: Murine anti human glypican 1 monoclonal antibody produced by hybridoma cells deposited at Cellbank Australia under accession number CBA20140026 (antibody)
# heavy: QIQLVQSGPELKKPGETVKISCKASGYAFTDYSMNWVKQAPGKGLRWMGWINTETGEPTYTDDFKGRFAFSLETSASTAFLQINNLRNEDTATYFCARHYDYGGFPYWGQGTLVTVSAAKTTPPSVYPLAPGSAAQTNSMVTLGCLVKGYFPEPVTVTWNSGSLSSGVHTFPAVLQSDLYTLSSSVTVPSSTWPSETVTCNVAHPASSTKVDKKIVPRDCGCKPCICTVPEVSSVFIFPPKPKDVLTITLTPKVTCVVVDISKDDPEVQFSWFVDDVEVHTAQTQPREEQFNSTFRSVSELPIMHQDWLNGKEFKCRVNSAAFPAPIEKTISKTKGRPKAPQVYTIPPPKEQMAKDKVSLTCMITDFFPEDITVEWQWNGQPAENYKNTQPIMDTDGSYFVYSKLNVQKSNWEAGNTFTCSVLHEGLHNHHTEKSLSHSPGK
# light: DIQMTQSPASLSASVGETVTITCRASGNVHNYLAWYQQKQGKSPQLLVYTAKTLADGVPSRFSGSGSGTQYSLKINSLQPEDFGTYYCQHFWSNPWTFGGGTKLEIKRADAAPTVSIFPPSSEQLTSGGASVVCFLNNFYPKDINVKWKIDGSERQNGVLNSWTDQDSKDSTYSMSSTLTLTKDEYERHNSYTCEATHKTSTSPIVKSFNRNEC
# Columns and labels:
# Assay type in all cases: binding
# glypican-1 [1] = molecular target: T1, glypican-1; assay: MIL38 immunoprecipitation and western blot of plasma samples (normal and prostate cancer patient)
# Text: Plasma samples from one normal patient (042) and one prostate cancer patient (046) were immunoprecipitated with MIL38 antibody and the IP sample western blotted with MIL38 and anti-GPC-1 antibodies (FIG. 16A).
# glypican-1 [2] = molecular target: T2, glypican-1; assay: Immunoprecipitation and western blot of DU-145 or C3 (MIL38 negative) MPEK extracts
# Text: MIL38 or rabbit anti-GPC-1 antibodies were used to immunoprecipitate their respective antigens from DU-145 or C3 (MIL38 negative) MPEK extracts. The immunoprecipitates (IPs) were western blotted with either MIL38 or anti-GPC-1 antibody (FIG. 15).
# MIL38 and rabbit anti-GPC-1 antibodies were each used to immunoprecipitate their antigens from DU-145 prostate cancer or C3 (MIL38 negative) cell membrane protein extracts. Shown are the western blots of the immunoprecipitations detected with either MIL38 or anti-GPC-1 antibody. FIG. 15A depicts GPC1 detection of MIL38 immunoprecipitates (left) and MIL38 detection of GPC1 immunoprecipitates (right). FIG. 15B depicts MIL38 detection of MIL38 immunoprecipitates as a control. Lanes are: Magic Mark-commercial protein marker as control; DU145 MPEK-prostate cancer membrane protein extract (not immunoprecipitated); DU145 FT-prostate cancer flow through from immune precipitation; DU145 IP-immunoprecipitate using antibody; C3 MPEK-(MIL38 negative) control membrane protein extract (not immunoprecipitated); C3 FT-flow through from immune precipitation; C3 IP elution-(MIL38 negative) immunoprecipitate using antibody. MIL38 can detect the immunoprecipitate from rGPC1 antibody and vice versa. MIL38 can also bind to all controls including DU145 MPEK and to IP conducted by MIL38.
# human glypican-1 (GPC-1) = assay: PEPSCAN-based ELISA on linear and CLIPS peptide arrays (sets 1-5) spanning GPC-1
# Text: The following human glypican-1 (GPC-1) sequence was used as a basis to generate a library of structured peptides.
# To reconstruct discontinuous epitopes of the target molecule a library of structured peptides was synthesized. This was done using Chemically Linked Peptides on Scaffolds (CLIPS) technology. CLIPS technology allowed the generation of structured peptides in single loops, double-loops, triple loops, sheet-like folds, helix-like folds and combinations thereof. CLIPS templates were coupled to cysteine residues. The side-chains of multiple cysteines in the peptides were coupled to one or two CLIPS templates. For example, a 0.5 mM solution of the T2 CLIPS template 1,3-bis (bromomethyl) benzene was dissolved in ammonium bicarbonate (20 mM, pH 7.9)/acetonitrile (1:1(v/v)). This solution was added onto the peptide arrays. The CLIPS template bound to side-chains of two cysteines as present in the solid-phase bound peptides of the peptide-arrays (455 wells plate with 3 μl wells). The peptide arrays were gently shaken in the solution for 30 to 60 minutes while completely covered in solution. Finally, the peptide arrays were washed extensively with excess of H2O and sonicated in disrupt-buffer containing 1 percent SDS/0.1 percent beta-mercaptoethanol in PBS (pH 7.2) at 70° C. for 30 minutes, followed by sonication in H2O for another 45 minutes. The T3 CLIPS carrying peptides were made in a similar way but with three cysteines.
# The binding of antibody to each of the synthesized peptides was tested in a PEPSCAN-based ELISA. The peptide arrays were incubated with primary antibody solution (overnight at 4° C.). […] After one hour, the color development was measured. The color development was quantified with a charge coupled device (CCD)-camera and an image processing system.
# The values obtained from the CCD camera ranged from 0 to 3000 mAU, similar to a standard 96-well plate ELISA-reader. The results were quantified and stored in the Peplab database. […] The cards were manually inspected and any values caused by an air-bubble were scored as 0. […]
# glypican-1 core protein = molecular target: T3, glypican-1 core protein; assay: 2D electrophoresis and western blotting of DU-145 MPEK extracts
# Text: To confirm that MIL38 recognized glypican-1, prostate cancer DU-145 MPEK extracts were subjected to 2D electrophoresis and western blotting.
# Membrane protein extracts (MPEK) of DU-145 prostate cancer cells were separated on 2D gel (pI gradient-horizontal, and molecular mass vertical). Western blots using MIL38 antibody and commercial rGPC-1 rabbit polyclonal antibodies show overlapping reactivity marking a 60Kd protein (circled in FIG. 14). Lane D (FIG. 14) is a one dimension separation for DU-145 extracts as a control. Lane M (FIG. 14) is a one dimension separation lane for molecular size markers as controls.
# MIL38 antigen = molecular target: T4, MIL38 antigen; assay: Western blot of membrane protein extracts from normal prostate and prostate cancer; settings: equivalent amounts of protein
# Text: To determine if MIL38 antigen could be detected in membrane protein extracts from normal prostate and prostate cancer, one sample of each was obtained from Novus Bio. Equivalent amounts of protein were western blotted using MIL38 antibody (FIG. 16B).
molecule,measurement,setting,value
B1,specific bands detected in plasma immunoprecipitates,glypican-1 [1]; MIL38 IP of both plasma samples,approx. 70 kDa
same,signal in prostate cancer patient plasma compared to normal patient plasma,glypican-1 [1]; patient 046 vs 042,markedly higher
same,depletion of MIL38 and anti-GPC-1 antigens by immunoprecipitation,glypican-1 [2]; DU-145 MPEK flow through,almost complete depletion
same,reactive band detected in the other antibody's immunoprecipitate,"glypican-1 [2]; DU-145 MPEK, IP with one antibody, blot with the other",60 kDa
same,ELISA response versus antibody concentration,"human glypican-1 (GPC-1); 1 μg/ml and 10 μg/ml, normal stringency",concentration dependent response
same,saturation of ELISA signal,human glypican-1 (GPC-1); 10 μg/ml,saturation was not observed
same,stretches / common cores of GPC-1 recognized on the peptide arrays,"human glypican-1 (GPC-1); peptide sets 1-5 (linear, loop, helical, sheet)",135TQNARAFRD143 (SEQ ID NO: 7) and 348[…]358 (SEQ ID NO: 2)
same,molecular weight of protein detected,glypican-1 core protein,60 kDa
same,expression of MIL38 antigen in prostate cancer extract versus normal prostate sample,MIL38 antigen,much higher
